Data published in the DeepSol protein solubility set.

assay: soluble on expression in E. coli; label from the status in PepcDB or PDB records

| Sequence | soluble on expression in E. coli |
| --- | --- |
| MGSDKIHHHHHHMSRQEQTPLFSGVVAHAKHNPVQFHIPGHKKGAGMDPAFRSFIGDNALSIDLINIGPLDDLHHPHGIIKEAQELAAEAFGADHTFFSVQGTSGAIMTMIMSVVGPGEKIIVPRNVHKSIMSAIVFSGATPVFIHPEIDPLLGISHGITIEAVEKALDAHPDAKGLLVINPTYFGIAANLKKIVELCHSRDVPVLVDEAHGVHIHFHEALPLSAMQAGADMAATSVHKLGGSLTQSSILNVREGLVSAKRVQTIISMLTTTSTSYLLLASLDAARKHLATNGRDLIGYTIQLADQARDQINAIDGLYCVGKEILGTIATYDYDPTKLIISVKNLGITGYDAEVWLREHYQIEVELSDLYNILCIVSFGDTEREMDLLVKALSELADLHKHGICERSPVSVYVPNIPTLAMSPRDAFYAETEVVPFEDSVGRTIAEFIMVYPPGIPILIPGEIITESNLAYIRENNRAGLPVQGPEDDTFRTLRVIKEHEAIR | not soluble |
| MEESIMSIKVDMSLDCKGLACPMPIVKTKKAIEGLAPGQVIEVKATDKGSTIDIKSWASKVGHQYIGTKHEGDVLVHYVRKANEHEVNEVVKYPHTITNAELQSILSHGEESIVLDVREAAEFAFGHIPSAISVPLGELDSAVLDETKRIYVICRTGNRSDVACHMLKEKGYANVKNVIPGMLEWKGNVEK | not soluble |
| MGSDKIHHHHHHASCSNDDDEMDKYQKIYIRTGVAPGAEMGAAVVVDCVSNSSTADRSDFEIQLCAVQPVTRDVTAALGVDTLKVDTYNSANKTKCKLLPQDNYTIETSEVVLKTGQTVADSSFQVVLKNIEKLTNPDGYVLPVTLKGVTGMDEQAVSTSMKTVYIRIYTSVLYTSYTKPGNWSAVDRSAWSVSCSNVYADDDAKYGAHLAIDGEINTTWFTWGVANAGECWWNTVLDRPVTLTGFSVTKQSAYGSGYNLRSAEIKVRKEGETEWVTYPRVLTFRNFKGADPQYAAIEPPIPNVKEFRINCLTPDNYTGFAEINLYVKQ | not soluble |
| MSYSPSLKEIIAILQKYTSKNYQSNCKTRPDGKLELSLNGVFEEIVKTPGKTRYVTHKQLDQKLKDFKQDLMVELHDTFATKTDLKESEARINQKLEALIQIVMVQGEQIKVHGEQINKLTQAVEKQGEKIEAQGQQIQKVNETLNFVVESLGSIHKRLDSMEGRLDSMENRLDKLESKLEHHHHHH | not soluble |
| MGELFLVGMGPGDLPGLTQRAREALEGAEVVIGYSTYVKLLEEMGLLAGKEVVRKGMTEELDRAEEALERALSGQRVALVSGGDPGIYGMAAPVLELMEERGLKRVDGGVGLPGRFAGEEGEVFLAVIPGVTAANAVASLLESPLAHDTCLISLSDLLTPWPLIERRLHAAGQGDFVVVLYNPQSKRRDWQLRKSAEILLEYRPKETPAALVKSAYRKRQEVALTTLEGLREAEAGMLTTVVIGNRQSRFYEGTFLTPRGYALKYDLDTKEALPGETPGLSLVSPEGASSGRRDA | soluble |
| MNASSAPQQQQQQQQPQQGQAPQQQQQGPPQHQYQQQRPFHGRVQNHMRGSGPFGNSNGYGRYTAPRGDQQHHDSTPLSSVSSRRVPLPPTSQHRASSNFNTTPSSTNLYIRGLMPNTNDDLLREMCSKYGNIASTKAIMDKATNNCKGYGFVDFESPQAAAAAVDGLNTEGVQAQMAKLQQQEQDPTNLYIANLPLDFTEQMLETELNKFGMVISTRILRTPDNQSRGVGFARMDSKEKCEVIISALNGGRFDTMSKEGPALLIKQADTGRKSKVGSTSRHPSFQQFSSLGGPTAFLNGQHSMNNPEMLQRMQYPQVYQSYYGYHPAAVYQQHYDVNSLASQMGGMHVGGGNPQANGGGDMYGAHMYGQNAGGQGGQGVGQGGQGGNQQFYNPNNGRNKKYFQPMNPQ | not soluble |
| MSLIYHRIAVNVPLSDGLLTYSHSDPLPPGTRVLVPFRNKTVVGMVWETDIAPDMDMARILSVQTAFVEEKPLPESWRDLLAFTSRYYHYPTGQAVFAALPQGLKETRAVEMPQPPLFYALNEAGRAQTPPPARFNKKAALWDALLSGGMTMAALKQVNAQAAKLIEDWAEQGWIETTEAAKPVLRSYHGQASHSEFVLNADQQQASDEIQTAFGSFQPFLLYGITGSGKTEVYFDAMAKVLAQGRQVLFLLPEINLTPQLLKRVENRFADVPTAVLHSQMAAGKRTQDYLRAMLGQAKLVIGTRLAVFTPMDDVGLIVVDEEHDGSFKQDNELRYHARDLAVWRAKQGGCPIILGSATPSLESWHKAQSGAYRLLQLTERAHTAAQLPQVDILNVGRLKLDNGFSPQALQLLKQNFEAGGMSLVYLNRRGFAPALFCGDCGYTFGCPNCSAKMVLHQRARQLRCHHCDHREPIPYKCPDCGNQDLTAVGHGTQRVEETLRTFLPKAAVVRVDRDSTAHKNDWADLYRRIADNKIDILVGTQMLAKGHDFARLNLVIVLNADGSLYSADFRAPERLFAELMQVSGRAGRADKPGKVLIQTQLPEHPVFAAVKAQDYAVFAENELNERQMFAMPPFGFQTAVRADAPRVADAMEFLNAAKETLAPLLPESVSQFGAAPMLMVRLAERERAQIFLESPSRQDLHRAVSLWAQVLQQNRDGKIRWSVDVDPQEAEGHHHHHH | not soluble |
| MKKQQFIDMQEQGTSTIPNLLLTHYKQLGLNETELILLLKIKMHLEKGSYFPTPNQLQEGMSISVEECTNRLRMFIQKGFLFIEECEDQNGIKFEKYSLQPLWGKLYEYIQLAQNQTQERKAEGEQKLEHHHHHH | soluble |
| METQDVVAKHYDELASEDRATRKSSKILSLRNLNNWVKSVLIALHTRPGYSVLDLACGKGGDLQKWQSQQITQYVGCDISKESLKTAQQRYQQLKKCTFTAQFLCGDCFSCRLSRYLEPDRNFHIVSCQFSMHYAFSCEEKVRRLLENVTERLVAGGFFIGTIPDSNVLVRKLRASSGLEFGNEFYRVVFDDSSSKTFTKPFGIRYHFYLESSVLDIPEYLVVMPVFEKLAKGYGLELQLVMNFHEFITMYLSAGSPFISLFHRMNILQDGGLSPEFWDTAYLYTVFAMKKQGASPWLGLSPESISYVDNTSFERKVIVMMDDEELDSERITFVDKEWNEMIPKRIKLQK | soluble |
| DTIRWATEQAIANGTGEREYIKKLEPMLKELGWWGKAKDENGNEVQLGSPRRLRTILRTNKITAYHAARYAQQMENVDEQPYWRYVAVNDSRTRASHLALHGKIYRADDPIWQTMYPPNDWGCRCRVE | not soluble |
| MSLAKDKDTLDFIRNLCQKRHVCIQSSLAKVSSKKVNEKDVDKFLLYQHFSCNIRNIHHHQILAINRGENLKVLTVKVNISDGVKDEFCRWCIQNRWRPRSFARPELMKILYNSLNDSFKRLIYPLLCREFRAKLTSDAEKESVMMFGRNLRQLLLTSPVPGRTLMGVDPGYKHGCKLAIISPTSQILHTDVVYLHCGQGFREAEKIKTLLLNFNCSTVVIGNGTACRETEAYFADLIMKNYFAPLDVVYCIVSEAGASIYSVSPEANKEMPGLDPNLRSAVSIARRVQDPLAELVKIEPKHIGVGMYQHDVSQTLLKATLDSVVEECVSFVGVDINICSEVLLRHIAGLNANRAKNIIEWREKNGPFINREQLKKVKGLGPKSFQQCAGFIRINQDYIRTFCSQQTETSGQIQGVAVTSSADVEVTNEKQGKKKSKTAVNVLLKPNPLDQTCIHPESYDIAMRFLSSIGGTLYEVGKPEMQQKINSFLEKEGMEKIAERLQTTVHTLQVIIDGLSQPESFDFRTDFDKPDFKRSIVCLEDLQIGTVLTGKVENATLFGIFVDIGVGKSGLIPIRNVTEAKLSKTKKRRSLGLGPGERVEVQVLNIDIPRSRITLDLIRVLEGHHHHHH | soluble |
| MKETNGIPARLRQVAVIRDGPRQETVVLEADGMYYIKGETVYLQFAEENELGRVNNIVKIAPDEVTVLRSGAVEMRQTSRRRQETSGHYGTVFGRWALAAKTSSMEFHYDERRKKGRLFLSYELMLGDERSGRHTLTLTFKGV | not soluble |
| DDFVSLGTSGWHARVVSTVSDPSEVRQFALPDGGILRIASVLSVGGTADWARSVLLPGVSAKEADALMLQRPRLATGLLSLPSIQGESFPVRSHSVGGCILGMRGNQDPLTLYTAVIEGICMTLAHDIKPGGILPATGGGARSVPWMRILASVTNRNIHVTVSEDAALHGAASLAAYATSAEYLPTLAARAIVEIEPEPEVVASFEPLIAKHLELFRFAAALSY | not soluble |
